{
  "source": "patent US10712339B2",
  "about": "“Engineering of a novel breast tumor microenvironment on a microfluidic chip” (Arizona Board of Regents on behalf of Arizona State …, priority 2014, dated 2020)",
  "molecules": {"B1": {"name": "EGF: epidermal growth factor injected to the side channels to stimulate chemoinvasion (protein, UniProt P01133 23-1207, looked up)", "Pro-epidermal growth factor": "PQHWSCPEGTLAGNGNSTCVGPAPFLIFSHGNSIFRIDTEGTNYEQLVVDAGVSVIMDFHYNEKRIYWVDLERQLLQRVFLNGSRQERVCNIEKNVSGMAINWINEEVIWSNQQEGIITVTDMKGNNSHILLSALKYPANVAVDPVERFIFWSSEVAGSLYRADLDGVGVKALLETSEKITAVSLDVLDKRLFWIQYNREGSNSLICSCDYDGGSVHISKHPTQHNLFAMSLFGDRIFYSTWKMKTIWIANKHTGKDMVRINLHSSFVPLGELKVVHPLAQPKAEDDTWEPEQKLCKLRKGNCSSTVCGQDLQSHLCMCAEGYALSRDRKYCEDVNECAFWNHGCTLGCKNTPGSYYCTCPVGFVLLPDGKRCHQLVSCPRNVSECSHDCVLTSEGPLCFCPEGSVLERDGKTCSGCSSPDNGGCSQLCVPLSPVSWECDCFPGYDLQLDEKSCAASGPQPFLLFANSQDIRHMHFDGTDYGTLLSQQMGMVYALDHDPVENKIYFAHTALKWIERANMDGSQRERLIEEGVDVPEGLAVDWIGRRFYWTDRGKSLIGRSDLNGKRSKIITKENISQPRGIAVHPMAKRLFWTDTGINPRIESSSLQGLGRLVIASSDLIWPSGITIDFLTDKLYWCDAKQSVIEMANLDGSKRRRLTQNDVGHPFAVAVFEDYVWFSDWAMPSVMRVNKRTGKDRVRLQGSMLKPSSLVVVHPLAKPGADPCLYQNGGCEHICKKRLGTAWCSCREGFMKASDGKTCLALDGHQLLAGGEVDLKNQVTPLDILSKTRVSEDNITESQHMLVAEIMVSDQDDCAPVGCSMYARCISEGEDATCQCLKGFAGDGKLCSDIDECEMGVPVCPPASSKCINTEGGYVCRCSEGYQGDGIHCLDIDECQLGEHSCGENASCTNTEGGYTCMCAGRLSEPGLICPDSTPPPHLREDDHHYSVRNSDSECPLSHDGYCLHDGVCMYIEALDKYACNCVVGYIGERCQYRDLKWWELRHAGHGQQQKVIVVAVCVVVLVMLLLLSLWGAHYYRTQKLLSKNPKNPYEESSRDVRSRRPADTEDGMSSCPQPWFVVIKEHQDLKNGGQPVAGEDGQAADGSMQPTSWRQEPQLCGMGTEQGCWIPVSSDKGSCPQVMERSFHMPSYGTQTLEGGVEKPHSLLSANPLWQQRALDPPHQMELTQ", "modifications": "Pro-epidermal growth factor", "notes": "epidermal growth factor injected to the side channels to stimulate chemoinvasion"}},
  "system": "SUM-159 breast cancer cells",
  "test": "Chemoinvasion of breast cancer cells in the microfluidic platform",
  "assay_type": "cell-based",
  "method": "We encapsulated highly invasive SUM-159 breast cancer cells within our platform. Cells were encapsulated in a mixture of Collagen:Matrigel at a ratio of 1:1 (final collagen density is 1 mg/mL) and the solution was injected into the tumor region while cell-free collagen type I (2 mg/mL) was injected into the stromal region. In one platform, 50 ng/mL of epidermal growth factor (EGF) was injected to the side channels to stimulate chemoinvasion, while in a control platform, no EGF was injected. We observed the migration of the cells throughout the stromal region over the course of four days in both conditions.\nThere was noticeable collagen deformation showing that the cells are actively sensing their biophysical environment and reacting to it. […] Cells without EGF stimulation did invade as well but not by the same distance.",
  "key": {"[1]": {"settings": "50 ng/mL EGF vs -EGF control, day 4"}},
  "data": [
    {"molecule": "B1", "values": [
      {"measurement": "invasion distance into the stromal region", "setting": "50 ng/mL EGF in side channels vs -EGF control, by day 3", "value": "invaded further"},
      {"measurement": "cell count as a function of migration distance", "setting": "[1]", "value": "more cells had migrated a greater distance"},
      {"measurement": "number of cells in the media channels", "setting": "[1]", "value": "a higher number of cells were seen in the channels"}
    ]}
  ]
}
